Our source for the stoichiometry N and Cp150Bo dimers added per holey capsid (dimers per holey capsid) values is publication PMC7838286.

By stoichiometry N is commonly meant the number of molecules, sites or subunits per partner or assembly.

Test [1] has as its target Cp150 homodimer (Cp149 variant with a C-terminal cysteine) (Hepatitis B Virus). The experiment in a line: cryo-EM structure; capsids left after treatment of co-assembled capsids with 3 M urea and 100 uM EDTA; C1 symmetry throughout; complete capsid 6.2 Å, holey capsids 10.8 Å and 12.9 Å.
Test [2] has the same target. Nature of the test: SEC; 2 uM Cp150Bo with 4 uM holey capsid, 300 mM NaCl, 23 °C, 24 h; 2 uM Cp150Bo alone with 300 mM NaCl as control; Superose 6 with absorbance at 280 and 504 nm and fluorescence at 512 nm. In general terms: SEC sorts molecules by how far they enter the pores of the column.

“Cp150 homodimer (Cp149 variant with a C-terminal cysteine) (domain or fragment)”: in test [1], the stoichiometry N is 120 dimers. In the case of “Cp150Bo homodimer (BODIPY-FL-labeled Cp150) (domain or fragment)”, the Cp150Bo dimers added per holey capsid (dimers per holey capsid) in test [2] amounted to 16.
